The results in this text go back to US20200207868A1.

This assay deals with full-length extracellular region of human FGFR1 (human) (UniProt P11362). In words: BLI, target binding to sensor-immobilized Fab. On the technique in general: BLI is a label-free optical method that tracks binding on a fibre tip over time.

B1: Library-S Fab against FGFR1 (Fab, V domains shown)
VH: EVQLVESGGGLVQPGGSLRLSCAASGFTFSSYGMHWVRQAPGKGLEWVAVISYDGSNKYYADSVKGRFTISRDNSKNTLYLQMNSLRAEDTAVYYCARSGRYGTYKGDFDYWGQGTLVTVSS
VL: DIQMTQSPSSLSASVGDRVTITCRASQGISNYLAWYQQKPGKAPKLLIYAASSLQSGVPSRFSGSRSGTDFTLTISSLQPEDFATYYCQQSYRSPLTFGQGTKVEIK
As a reminder, the Kd is the concentration at which binding is half-saturated. A higher Kd goes with lower affinity. In the case of B1, the Kd was found to be 22.4 nM. This counts as double-digit nanomolar.
